Reference: IntAct's records for PubMed 10837255

B1: Spindle assembly checkpoint serine/threonine-protein kinase BUB1 (Saccharomyces cerevisiae), P41695 (parent)
chain: MNLDLGSTVRGYESDKDTFPQSKGVSSSQKEQHSQLNQTKIAYEQRLLNDLEDMDDPLDLFLDYMIWISTSYIEVDSESGQEVLRSTMERCLIYIQDMETYRNDPRFLKIWIWYINLFLSNNFHESENTFKYMFNKGIGTKLSLFYEEFSKLLENAQFFLEAKVLLELGAENNCRPYNRLLRSLSNYEDRLREMNIVENQNSVPDSRERLKGRLIYRTAPFFIRKFLTSSLMTDDKENRANLNSNVGVGKSAPNVYQDSIVVADFKSETERLNLNSSKQPSNQRLKNGNKKTSIYADQKQSNNPVYKLINTPGRKPERIVFNFNLIYPENDEEFNTEEILAMIKGLYKVQRRGKKHTEDYTSDKNRKKRKLDVLVERRQDLPSSQPPVVPKSTRIEVFKDDDNPSQSTHHKNTQVQVQTTTSILPLKPVVDGNLAHETPVKPSLTSNASRSPTVTAFSKDAINEVFSMFNQHYSTPGALLDGDDTTTSKFNVFENFTQEFTAKNIEDLTEVKDPKQETVSQQTTSTNETNDRYERLSNSSTRPEKADYMTPIKETTETDVVPIIQTPKEQIRTEDKKSGDNTETQTQLTSTTIQSSPFLTQPEPQAEKLLQTAEHSEKSKEHYPTIIPPFTKIKNQPPVIIENPLSNNLRAKFLSEISPPLFQYNTFYNYNQELKMSSLLKKIHRVSRNENKNPIVDFKKTGDLYCIRGELGEGGYATVYLAESSQGHLRALKVEKPASVWEYYIMSQVEFRLRKSTILKSIINASALHLFLDESYLVLNYASQGTVLDLINLQREKAIDGNGIMDEYLCMFITVELMKVLEKIHEVGIIHGDLKPDNCMIRLEKPGEPLGAHYMRNGEDGWENKGIYLIDFGRSFDMTLLPPGTKFKSNWKADQQDCWEMRAGKPWSYEADYYGLAGVIHSMLFGKFIETIQLQNGRCKLKNPFKRYWKKEIWGVIFDLLLNSGQASNQALPMTEKIVEIRNLIESHLEQHAENHLRNVILSIEEELSHFQYKGKPSRRF
partner: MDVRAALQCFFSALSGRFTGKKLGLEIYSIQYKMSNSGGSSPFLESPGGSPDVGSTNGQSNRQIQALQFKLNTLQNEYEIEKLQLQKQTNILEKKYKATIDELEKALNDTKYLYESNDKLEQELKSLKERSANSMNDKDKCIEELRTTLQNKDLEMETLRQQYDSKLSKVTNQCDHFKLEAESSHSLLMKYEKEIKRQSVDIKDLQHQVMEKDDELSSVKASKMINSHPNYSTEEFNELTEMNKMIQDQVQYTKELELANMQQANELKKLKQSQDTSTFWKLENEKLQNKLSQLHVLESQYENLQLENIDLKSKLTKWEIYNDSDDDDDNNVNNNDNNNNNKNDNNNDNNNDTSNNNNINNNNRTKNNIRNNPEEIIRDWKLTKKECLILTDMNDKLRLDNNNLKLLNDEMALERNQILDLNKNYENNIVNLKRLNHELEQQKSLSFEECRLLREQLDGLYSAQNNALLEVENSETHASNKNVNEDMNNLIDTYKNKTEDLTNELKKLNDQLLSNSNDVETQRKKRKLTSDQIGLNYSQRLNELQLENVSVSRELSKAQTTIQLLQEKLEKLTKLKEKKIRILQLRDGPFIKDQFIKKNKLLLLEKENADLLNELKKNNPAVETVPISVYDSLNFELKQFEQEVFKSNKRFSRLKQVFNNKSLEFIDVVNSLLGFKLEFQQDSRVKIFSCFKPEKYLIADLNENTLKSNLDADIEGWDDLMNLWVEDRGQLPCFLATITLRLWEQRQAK

Variants of: B1
Settings: with mad1_yeast MAD1, P40957
For K733R, the “effect of a mutation on the interaction” value was “decreasing interaction”.
